What was measured:
[1] = biological target: OsOTUB1-cat (OsOTUB1 residues 74 to 324, catalytic domain) (Oryza sativa); experiment: cross-linking; 20 µM DUB with 100 µM Ub-PA in gel filtration buffer (50 mM Tris-HCl pH 8, 150 mM NaCl, 2 mM DTT), 37 °C, samples at time points, SDS-PAGE, Coomassie
[2] = biological target: OsOTUB1-cat (OsOTUB1 residues 74 to 324, catalytic domain) (Oryza sativa)

Substance | percent of Ub-PA crosslinked in 1 min [1] | KM of OsOTUB1-cat for the variant, fold reduction of affinity against Met1-diUb WT (Michaelis-Menten kinetics by HPLC, two replicates) [2]
C-terminally propargylated Ub (Ub-PA) | > 90% | 
Met1-diUb Q2A^prox (from UniProt P0CG48 1-76) (natural protein) |  | 3.65 to 4.3 fold
Met1-diUb Q2E^prox (from UniProt P0CG48 1-76) (natural protein) |  | 4.2 to 6.23 fold
Met1-diUb Q2H^prox (from UniProt P0CG48 1-76) (natural protein) |  | 1.45 to 1.58 fold
Met1-diUb Q2N^prox (from UniProt P0CG48 1-76) (natural protein) |  | 1.52 to 1.91 fold

Reference: PMC9363410
